According to US12714679B2, “Fullerenes to treat diseases and conditions” (The Cleveland Clinic Foundation, priority 2018, dated 2026):

B1: cystathionine γ-lyase (protein, UniProt P32929 1-405, looked up)
Cystathionine gamma-lyase: MQEKDASSQGFLPHFQHFATQAIHVGQDPEQWTSRAVVPPISLSTTFKQGAPGQHSGFEYSRSGNPTRNCLEKAVAALDGAKYCLAFASGLAATVTITHLLKAGDQIICMDDVYGGTNRYFRQVASEFGLKISFVDCSKIKLLEAAITPETKLVWIETPTNPTQKVIDIEGCAHIVHKHGDIILVVDNTFMSPYFQRPLALGADISMYSATKYMNGHSDVVMGLVSVNCESLHNRLRFLQNSLGAVPSPIDCYLCNRGLKTLHVRMEKHFKNGMAVAQFLESNPWVEKVIYPGLPSHPQHELVKRQCTGCTGMVTFYIKGTLQHAEIFLKNLKLFTLAESLGGFESLAELPAIMTHASVLKNDRDVLGISDTLIRLSVGLEDEEDLLEDLDQALKAAHPPSGSHS
notes: enzyme producing H2S from cysteine, comparator catalyst

How the values were obtained:
[1] = Lead acetate (PbA/PbS) assay, catalytic H2S production from cysteine; type: biochemical
Experimental: Further work was conducted as follows with regard to the catalytic production of H2S by PHFs. PHF (SJJR; 10 mg/mL) was added to a mixture of L-cysteine (10 mM) and […] (PLP; 1 mM) in a 96-well plate and then covered with a blotting paper saturated with lead acetate. After 24 hours, the lead acetate paper was removed and scanned. The lead sulfide dots were analyzed for average integrated density using ImageJ. After every 24 hours, the wells were replenished with L-cysteine (10 mM) and covered with the lead acetate paper and the lead sulfide dots were analyzed.
Lead acetate assay: The kinetics and catalysis coefficients for PHF catalyzed H2S production were determined using lead acetate assay (PbA/PbS assay) as generally described in Hine and Mitchell, “Endpoint and Kinetic Measurement of Hydrogen Sulfide Production Capacity in Tissue Extracts” Bio-Protocol, 7 (13), e2382, 2017). Briefly: Reaction mixtures (150 μL/well) containing PHF or enzyme (CGL), enzyme co-factor (PLP) and substrate (e.g., cysteine) were tested in 96-well plates Immediately after addition of catalyst, 96-well plates were covered with lead acetate saturated paper and placed inside a 37° C. cell culture incubator. At a predetermined time point, the lead acetate paper was removed and scanned, and the lead sulfide dots analyzed with ImageJ using the IntDen function. A calibration curve was prepared with different concentrations of sodium hydrosulfide plotted against the integrated density obtained on lead acetate/lead sulfide paper. The presence of pyruvic acid after reaction was confirmed in a preliminary experiment by liquid chromatography—mass spectroscopy.
To determine the steady-state kinetic parameters experiments were carried out with different initial substrate concentrations. The initial (linear) slope from the graph of H2S concentration versus time at each substrate concentration was used to determine the reaction velocity, which was plotted against initial cysteine concentrations to obtain Michaelis-Menten curves (FIGS. 5 and 6). Least squares non-linear fitting was used to determine values of Km and Vmax from the equation v=Vmax [S]/(Km+[S]).

HR-TEM size = type: physicochemical
From the text: FIG. 3: Panel A) a hypothetical schematic illustration of the breakdown of cysteine to hydrogen sulfide, ammonia and pyruvic acid. While the present disclosure is not limited to any particular mechanism and an understanding of the mechanism is not necessary to practice the invention, it is believed that polyhydroxy fullerenes (PHF) mimic carbon-sulfur lyases. It was found during work conducted during development of embodiments herein that PHFs catalyze the breakdown of cysteine under physiological conditions. Panel B) HR-TEM image of PHF (C60(OH)9O7Na6) showing a cluster size of 3.4±0.5 nm. Panel C) HR-TEM image of CGL showing a molecular size of 4.1±0.4 nm.

[2] = Without PLP, substrate L-Cysteine

Molecule	H2S produced ([1]; PLP with cysteine, no PHF, in 24 hours) [mM]	molecular size (HR-TEM size) [nm]	H2S production at room temperature ([1]; PBS)	H2S production at 4° C. ([1]; PBS, presence or absence of PLP)	KCAT ([1]; With PLP, substrate L-Cysteine) [s⁻¹]	Km ([1]; With PLP, substrate L-Cysteine) [mM]	Vmax ([1]; With PLP, substrate L-Cysteine) [nM/s]	KCAT [1, 2] [s⁻¹]	Vmax [1, 2] [nM/s]
Cc1ncc(COP(=O)(O)O)c(C=O)c1O [PLP, pyridoxal-5′-phosphate, reference compound]	0.024	–	–	–	–	–	–	–	–
B1	–	4.1±0.4	produced H2S only in presence of PLP	No H2S was produced	130	25.4	2.9	5800	1.3
